Target: human GABAA receptor β3 subunit (human, UniProt P28472, N-linked glycans at Asn80 and Asn149)
Experiment: cryo-EM structure

human GABAA receptor β3 subunit, sequence (P28472 26-473): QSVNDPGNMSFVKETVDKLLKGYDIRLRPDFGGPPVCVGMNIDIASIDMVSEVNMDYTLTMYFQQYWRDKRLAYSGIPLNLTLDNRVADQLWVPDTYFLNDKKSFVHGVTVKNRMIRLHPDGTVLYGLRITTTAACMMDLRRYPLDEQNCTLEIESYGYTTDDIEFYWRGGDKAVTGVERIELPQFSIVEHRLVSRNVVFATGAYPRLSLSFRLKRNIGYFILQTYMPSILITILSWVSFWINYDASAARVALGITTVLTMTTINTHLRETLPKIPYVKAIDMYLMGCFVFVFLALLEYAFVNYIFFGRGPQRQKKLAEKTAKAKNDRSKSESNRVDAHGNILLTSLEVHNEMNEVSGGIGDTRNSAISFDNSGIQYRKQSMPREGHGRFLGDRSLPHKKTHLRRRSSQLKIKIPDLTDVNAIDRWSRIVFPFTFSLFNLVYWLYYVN

B1: megabody MbNb38^cHopQ (VHH)
VHH: QVQLQESGGGLVQAGGSLRVSCAASGRTFTAYIMAWFRQAPGKEREFLAAMDQGRIQYYGDSVRGRFTISRDYAKNSVDLQLDGLRPEDTAVYYCAAGAGFWGLRTASSYHYWGQGTQVTVSS
  binding result: binds
